Measurements taken from patent US20120159674A1.

Target: Cry1Ab receptor proteins in brush border membrane vesicle (BBMV) preparations from the midgut of Heliothis zea larvae
Test: homologous competition with 0.25 nM ^125I Cry1Ab on H. zea BBMV (0.10 mg protein/ml)

## Cry1Ab core toxin (trypsin truncated Cry1Ab)
  IC50: 2 nM
